Results as given in article PMC5736207.

What was measured:
purified protein [1] = substrate: O=P(O)(O)O[C@H]1O[C@H](CO)[C@@H](O)[C@H](O)[C@H]1O; test: purified protein; format: biochemical, Homo sapiens; details: 27 μM Glc-1,6-P2, MgCl2 5 mM, pH 7.5, 32°C
purified protein [2] = substrate: O=P(O)(O)O[C@H]1O[C@H](CO)[C@@H](O)[C@H](O)[C@@H]1O; test: purified protein; format: biochemical, Homo sapiens; details: pH 7.5, 32°C

Protein | Km (purified protein [1]) | Km (purified protein [2]; 10 μM Man-1,6-P2, MgCl2 5 mM) | Km (purified protein [2]; 3 μM Man-1,6-P2, MgCl2 5 mM)
PMM1 (phosphomannomutase1) (Homo sapiens; E219K/M186Q/N218D) (protein, recombinant, E. coli BL21(DE3), purified as in earlier work (DEAE, butyl Sepharose); dimer; no tag mentioned) AVTAQAARRKERVLCLFDVDGTLTPARQKIDPEVAAFLQKLRSRVQIGVVGGSDYCKIAEQLGDGDEVIEKFDYVFAENGTVQYKHGRLLSKQTIQNHLGEELLQDLINFCLSYMALLRLPKKRGTFIEFRNGMLNISPIGRSCTLEERIEFSELDKKEKIREKFVEALKTEFAGKGLRFSRGGQISFDVFPEGWDKRYCLDSLDQDSFDTIHFFGDKTSPGGNDFEIFADPRTVGHSVVSPQDTVQRCREIFFPETAHEA | 3.5 ± 1.3 µM | 1.6 ± 0.4 µM | –
PMM1 (phosphomannomutase1) (Homo sapiens) (protein, recombinant, E. coli BL21(DE3), purified as in earlier work (DEAE, butyl Sepharose); dimer; no tag mentioned) AVTAQAARRKERVLCLFDVDGTLTPARQKIDPEVAAFLQKLRSRVQIGVVGGSDYCKIAEQLGDGDEVIEKFDYVFAENGTVQYKHGRLLSKQTIQNHLGEELLQDLINFCLSYMALLRLPKKRGTFIEFRNGMLNISPIGRSCTLEERIEFSELDKKEKIREKFVEALKTEFAGKGLRFSRGGMISFDVFPEGWDKRYCLDSLDQDSFDTIHFFGNETSPGGNDFEIFADPRTVGHSVVSPQDTVQRCREIFFPETAHEA | 7.3 ± 1.7 µM | 6.5 ± 1.3 µM | –
PMM2 (phosphomannomutase2) (Homo sapiens) (protein, recombinant, E. coli BL21(DE3), purified as in earlier work; no tag mentioned) AAPGPALCLFDVDGTLTAPRQKITKEMDDFLQKLRQKIKIGVVGGSDFEKVQEQLGNDVVEKYDYVFPENGLVAYKDGKLLCRQNIQSHLGEALIQDLINYCLSYIAKIKLPKKRGTFIEFRNGMLNVSPIGRSCSQEERIEFYELDKKENIRQKFVADLRKEFAGKGLTFSIGGQISFDVFPDGWDKRYCLRHVENDGYKTIYFFGDKTMPGGNDHEIFTDPRTMGYSVTAPEDTRRICELLFS | – | – | 23.7 ± 4.5 µM
